Here are results for 18 molecules from patent US20090036365A1 (DYAX, published 2009).

For orientation: Kd means a measure of binding affinity in units of concentration. A low value points to higher affinity.

Experiment [1] deals with T1, human plasmin (human, UniProt P00747 97-810, limits assumed).
T1 construct: also called plasmin-beads; plasmin-agarose beads
Kind of experiment: binding of clonally pure display phage to plasmin relative to BPTI display phage.

Experiment [2] concerns the target T1, human plasmin. Put plainly: preliminary plasmin inhibition test; measured Ki used as KD.
Experiment [3] concerns the target T1, human plasmin. Put plainly: inhibition of plasmin by soluble protein; measured Ki used as KD.
Experiment [4] deals with T1, human plasmin. The description is as above. This is another data set of the same source.
Experiment [5] concerns the target Thrombin. Put plainly: display phage binding to immobilised protease.
Experiment [6] has as its target T1, human plasmin. Put plainly: display phage binding to immobilised protease.
Experiment [7] concerns the target Kallikrein. Kind of experiment: display phage binding to immobilised protease.
In experiment [8] the target is T2, Trypsin.
T2 construct: also called trypsin-agarose beads
T2 sequence (P00760 24-246): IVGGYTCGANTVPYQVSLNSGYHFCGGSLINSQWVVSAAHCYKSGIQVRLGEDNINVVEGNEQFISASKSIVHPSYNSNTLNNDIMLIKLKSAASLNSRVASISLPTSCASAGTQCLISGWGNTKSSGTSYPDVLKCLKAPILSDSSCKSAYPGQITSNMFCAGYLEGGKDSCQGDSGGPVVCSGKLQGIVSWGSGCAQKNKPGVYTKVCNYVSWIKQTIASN
Kind of experiment: display phage binding to immobilised protease.

Experiment [9] addresses T2, Trypsin. Kind of experiment: display phage binding to immobilised trypsin, 2 washes.
Experiment [10] has as its target T1, human plasmin. Kind of experiment: display phage binding to protease beads.
Experiment [11] addresses T1, human plasmin. Kind of experiment: inhibition of plasmin hydrolysis of a fluorogenic substrate, tight-binding fit; measured Ki used as KD.

Residue numbers refer to the chain shown, from its start.

T1 sequence (P00747 97-810 limits assumed): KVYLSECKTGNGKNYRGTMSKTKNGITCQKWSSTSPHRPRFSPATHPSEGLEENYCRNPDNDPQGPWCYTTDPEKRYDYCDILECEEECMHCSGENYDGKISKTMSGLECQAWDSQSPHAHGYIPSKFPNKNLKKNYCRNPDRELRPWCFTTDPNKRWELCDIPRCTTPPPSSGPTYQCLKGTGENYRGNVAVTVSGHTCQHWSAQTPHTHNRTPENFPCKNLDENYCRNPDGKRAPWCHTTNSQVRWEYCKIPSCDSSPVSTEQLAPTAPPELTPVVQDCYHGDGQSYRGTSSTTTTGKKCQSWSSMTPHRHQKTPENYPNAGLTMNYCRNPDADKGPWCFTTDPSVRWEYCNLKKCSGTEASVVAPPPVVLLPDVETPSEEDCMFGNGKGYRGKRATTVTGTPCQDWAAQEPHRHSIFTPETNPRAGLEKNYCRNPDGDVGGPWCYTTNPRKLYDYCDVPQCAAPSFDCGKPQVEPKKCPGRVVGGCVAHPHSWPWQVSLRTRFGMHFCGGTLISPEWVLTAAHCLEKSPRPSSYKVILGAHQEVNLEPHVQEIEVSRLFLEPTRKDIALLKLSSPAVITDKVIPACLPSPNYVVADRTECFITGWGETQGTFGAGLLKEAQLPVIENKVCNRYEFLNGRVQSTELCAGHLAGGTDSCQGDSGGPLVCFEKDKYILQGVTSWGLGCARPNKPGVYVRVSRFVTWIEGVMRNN
Chain of Kallikrein (P03952 20-390, chain 1 of 2): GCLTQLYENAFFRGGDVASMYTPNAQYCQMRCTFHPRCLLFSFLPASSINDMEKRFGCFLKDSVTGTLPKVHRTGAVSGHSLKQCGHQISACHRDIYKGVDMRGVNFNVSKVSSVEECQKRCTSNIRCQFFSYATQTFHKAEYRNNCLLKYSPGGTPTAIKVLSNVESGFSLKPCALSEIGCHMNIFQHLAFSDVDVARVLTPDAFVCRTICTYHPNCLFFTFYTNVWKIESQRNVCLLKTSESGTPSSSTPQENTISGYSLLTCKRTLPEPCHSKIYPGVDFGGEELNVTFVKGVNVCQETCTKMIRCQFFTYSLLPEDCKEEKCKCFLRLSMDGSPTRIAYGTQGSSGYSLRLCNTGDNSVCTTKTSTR
Chain of Kallikrein (P03952 391-638, chain 2 of 2): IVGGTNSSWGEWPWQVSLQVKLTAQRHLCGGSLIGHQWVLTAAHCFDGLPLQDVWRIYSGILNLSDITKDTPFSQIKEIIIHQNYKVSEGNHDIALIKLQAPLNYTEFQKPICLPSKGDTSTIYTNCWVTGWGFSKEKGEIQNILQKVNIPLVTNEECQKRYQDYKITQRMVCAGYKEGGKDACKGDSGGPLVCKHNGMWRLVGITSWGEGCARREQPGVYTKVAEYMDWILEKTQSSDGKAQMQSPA

B1: SPI08 (designed binder)
chain: MHSFCAFKADGGPCRARFERFFFNIFTRQCEEFIYGGCEGNQNRFESLEECKKMCTRD
notes: also called isolate 08
Take B1: the “Phage Binding (relative to BPTI phage)” value in [1] is 2.6 fold of BPTI phage.

B2: SPI22 (designed binder)
chain: B1 chain with R15K, A16G, R17K, E19P
notes: also called isolate 22
B2 registered a Kd in [2] greater than 2 nM. Moreover, the “Phage Binding (relative to BPTI phage)” value in [1] is 2 fold of BPTI phage.

B3: SPI43 (designed binder)
chain: MHSFCAFKAETGPCRGKFDRWFFNIFTRQCESFHYGGCKGNQNRFESLEECKKMCTRD
As for B3, the Kd in experiment [2] was greater than 4 nM.

B4: SPI23 (designed binder)
chain: B1 chain with D10E, R17K, E19Q, F21W
notes: also called isolate 23
B4 gave a Kd in [2] of roughly 0.5 nM. The “Phage Binding (relative to BPTI phage)” value in experiment [1] was 1.25 fold of BPTI phage.

B5: SPI17 (designed binder)
chain: B1 chain with D10E, G11V, F18I, E19Q
notes: 104 for the printed residues 10-21
For B5, in [1], the “Phage Binding (relative to BPTI phage)” value was 0.09 fold of BPTI phage.

B6: SPI21 (designed binder)
chain: B1 chain with G11S, P13A, R15K, A16G, R17K, F21W
notes: 116 for the printed residues 10-21
As for B6, in experiment [1], the “Phage Binding (relative to BPTI phage)” value is 0.38 fold of BPTI phage.

B7: SPI47 (designed binder)
chain: B1 chain with G11A, R17K
B7 displayed a dissociation constant Kd in experiment [2] of roughly 0.8 nM.

B8: SPI11 (Selected Plasmin Inhibitor#11) (designed binder)
chain: B1 chain with D10E, G11T, E19D, F21W
notes: also called isolate 11
Take B8: the Kd in [3] and in experiment [4] was 0.088 nM throughout. For the same molecule, the “Phage Binding (relative to BPTI phage)” value in experiment [1] was 3.2 fold of BPTI phage.

B9: SPI01 (designed binder)
chain: B1 chain with G11S, P13A, R17M, E19H
notes: 112 for the printed residues 10-21
For the molecule B9, the “Phage Binding (relative to BPTI phage)” value in experiment [1] was 0.25 fold of BPTI phage.

B10: QS4 displayed on gIIIp of M13 (designed binder)
chain: B1 chain with G11D, R15K, E32Q, I34Y, E39D
notes: also called phage that display the LACI-K1 derivative QS4
For the molecule B10, the “relative binding (LACI-K1 phage = unit)” value in experiment [5] is 0.7 fold of LACI-K1 phage; in experiment [6] it was 52 fold of LACI-K1 phage; in experiment [7], 0.9 fold of LACI-K1 phage; in [8], 4.5 fold of LACI-K1 phage; in experiment [9], 0.5 fold of LACI-K1 phage. Also, the “fold binding to plasmin beads over other protease targets” value in experiment [10] is no less than 50 fold.

B11: SPI51 (designed binder)
chain: B1 chain with G11A, R17K, E31T, E32A, I34F, E39G
Consider B11, for which, in [2], the Kd was roughly 0.5 nM.

B12: SPI16 (designed binder)
chain: B1 chain with D10E, G11V, P13A, R15K, A16G, E19H, F21W
notes: 110 for the printed residues 10-21
Regarding B12, in experiment [1], the “Phage Binding (relative to BPTI phage)” value is 0.22 fold of BPTI phage.

B13: SPI54 (designed binder)
chain: B1 chain with G11S, E19D, F21W, E31T, E32R, I34P, E39G
For B13, the Kd in experiment [2] was greater than 4 nM.

B14: SPI02 (designed binder)
chain: B1 chain with G11S, A16G
notes: 102 for the printed residues 10-21
On to B14, for which the “Phage Binding (relative to BPTI phage)” value in [1] was 0.83 fold of BPTI phage.

B15: SPI15 (designed binder)
chain: B1 chain with D10E, G11S, E19D, F21W
notes: 41 for the whole domain; 90 for the printed residues 10-21; also called SP115; isolate 15
In the case of B15, the “Phage Binding (relative to BPTI phage)” value in experiment [1] was 2.5 fold of BPTI phage.

B16: SPI03 (designed binder)
chain: B1 chain with G11S, R15K, E19D, F21W
notes: 108 for the printed residues 10-21
Take B16: the “Phage Binding (relative to BPTI phage)” value in experiment [1] was 0.48 fold of BPTI phage.

B17: SPI05 (designed binder)
chain: B1 chain with D10E, G11S, R17K, E19A
notes: 105 for the printed residues 10-21
For the molecule B17, in experiment [1], the “Phage Binding (relative to BPTI phage)” value is 0.64 fold of BPTI phage.

B18: QS4, yeast-expressed soluble protein (designed binder)
chain: EAAEMHSFCAFKADDGPCKARFERFFFNIFTRQCEQFYYGGCDGNQNRFESLEECKKMCTRD
notes: Expressed in S. cerevisiae from a mat alpha fusion, purified on trypsin-agarose; also called QS4 variant
Regarding B18, the Kd in [11] amounted to 2 nM.
